The source of these data is article PMC3183022 (Molecular Biology of the Cell, 2011).

The target in experiment [1] is mouse retrolinkin amino-terminus (amino acids 31–460) fused to GST (mouse, UniProt Q8BHE4 31-460). The experiment is described as follows: pull-down.
In experiment [2] the target is His-tagged retrolinkin (aa 31–460) (mouse, UniProt Q8BHE4 31-460). Kind of experiment: pull-down.
Chain of His-tagged retrolinkin (aa 31–460) (Q8BHE4 31-460): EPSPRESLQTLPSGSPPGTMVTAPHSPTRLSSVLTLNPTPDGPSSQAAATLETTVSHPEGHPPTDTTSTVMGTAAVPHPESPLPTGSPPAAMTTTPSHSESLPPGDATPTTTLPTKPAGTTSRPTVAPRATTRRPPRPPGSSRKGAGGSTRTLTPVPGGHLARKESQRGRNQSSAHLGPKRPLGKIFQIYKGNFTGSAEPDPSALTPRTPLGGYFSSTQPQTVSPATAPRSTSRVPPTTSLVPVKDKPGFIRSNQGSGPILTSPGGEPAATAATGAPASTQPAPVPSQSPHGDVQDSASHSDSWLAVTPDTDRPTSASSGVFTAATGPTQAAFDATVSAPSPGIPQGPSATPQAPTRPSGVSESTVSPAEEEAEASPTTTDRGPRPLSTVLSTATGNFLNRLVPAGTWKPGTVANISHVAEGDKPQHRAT

Chain of mouse retrolinkin amino-terminus (amino acids 31–460) fused to GST (Q8BHE4 31-460): as above

B1: recombinant His-tagged endophilin A1 (natural protein, mouse, UniProt Q62420 1-352, looked up)
chain: MSVAGLKKQFHKATQKVSEKVGGAEGTKLDDDFKEMERKVDVTSRAVMEIMTKTIEYLQPNPASRAKLSMINTMSKIRGQEKGPGYPQAEALLAEAMLKFGRELGDDCNFGPALGEVGEAMRELSEVKDSLDMEVKQNFIDPLQNLHDKDLREIQHHLKKLEGRRLDFDYKKKRQGKIPDEELRQALEKFDESKEIAESSMFNLLEMDIEQVSQLSALVQAQLEYHKQAVQILQQVTVRLEERIRQASSQPRREYQPKPRMSLEFATGDSTQPNGGLSHTGTPKPPGVQMDQPCCRALYDFEPENEGELGFKEGDIITLTNQIDENWYEGMLHGQSGFFPINYVEILVALPH
For the molecule B1, the binding result in experiment [1] is given as “binds”.

B2: GST-tagged endophilin A1 SH3 domain (aa 295–346) (domain or fragment)
chain: not shown
On to B2, for which, in experiment [2], the binding result is on record as “binds”.
